Data reported in the supplement of paper PMC10567573.
± gives the standard deviation.

Assay: protein stability index of a GFP-peptide fusion (GPS, HEK-293T) (PSI 1-6); higher = more stable
[1] = treatment: DMSO, c terminus: a fixed tail appended
[2] = treatment: MLN4924 1 uM, 8 h, c terminus: a fixed tail appended
[3] = treatment: DMSO, c terminus: native
[4] = treatment: MLN4924 1 uM, 8 h, c terminus: native
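Also: 24-mer peptide tiles fused after GFP, lentivirally expressed, FACS-sorted into six equal bins by GFP/DsRed ratio, decoded by Illumina sequencing, PSI is the read-weighted mean bin number.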

Sequence	protein stability index [1]	protein stability index [2]	protein stability index [3]	protein stability index [4]
LGPGALHFDLRDDDDAEEEGPKRE [TCF25]	5.17 ± 0.29	5.54 ± 0.13		
EMDMVVFRPEMKKHSWCLKRKNPP [N4BP2L1]	3.25 ± 0.31	3.25 ± 0.18		
DLNSKGKKREFRFHPIKETVVEEP [INTS3]	3 ± 0.65	3.64 ± 0.53		
SMLVAGNDRVQTIITQLEDSRRVT [TRIM63]	3.81 ± 0.077	3.72 ± 0.12		
RVEFPRSGRGTGRGGGGGGGGGAP [SRSF1]	4.7 ± 0.39	4.8 ± 0.28		
LQEVLSSDENGGTYVSPPGNEEEE [DDIT3]	5.63 ± 0.27	5.42 ± 0.3		
AAVVTSPPPTTAPHKERYFDRVDE [ADD1]	4.77 ± 0.44	4.73 ± 0.34		
PRPNRLFLRQLRASHLGNELEGTE [C2CD2L]	3.92 ± 0.15	4.05 ± 0.26		
LCEPDPVHFSEAIEKFIREPSLKA [ALG2]	3.81 ± 0.19	3.91 ± 0.19		
QAQQGRSSLVWLFSQLYLYSFISL [MCOLN1]	2.86 ± 0.46	3.09 ± 0.25		
SGPEAARAGGWVSGEEFYMLTRRV [PKD2L1]	2.69 ± 0.29	2.96 ± 0.49		
NNWPPLPSFCPVQPCFFQDISMEI [SCAMP3]	2.4 ± 0.53	2.55 ± 0.5		
YSPSQYALQYAGDGSVLLIPRTMA [NFE2L1]	2.11 ± 0.22	2.26 ± 0.22		
PAEEAGPEGGLEEPDALDDSLTSL [FOXJ1]	5.6 ± 0.23	5.56 ± 0.34		
ILTIICYLGLPRLEFYRYYQQLKL [SLC29A1]	3.31 ± 0.33	3.08 ± 0.56		
TNSDVLAQQFALMAPLLFNGCRSG [DCAF4]	2.23 ± 0.27	2.14 ± 0.3		
IYLINQKWFGRKRTLSAFLCLGGL [SLC22A15]	3.15 ± 0.26	3.01 ± 0.56		
NDPSGSEEADFLSAETGSPRLTMH [IRX6]	5.16 ± 0.083	5.2 ± 0.057		
VAVDFTWEEWQFLSPAQKDLYRDV [ZNF649]	2.54 ± 0.73	2.64 ± 0.22		
RREQAAAAPFPSPAPASPAISVVG [TFE3]	4.22 ± 0.35	4.24 ± 0.18		
SSLEEIVEKQGDTIEYLKRHNALL [TMEM192]	3.82 ± 0.38	3.92 ± 0.16		
VLRSWYEKNKHIFPASRWEPYDPE [FAM50A]	2.87 ± 0.078	3 ± 0.21		

Sequence	protein stability index [1]	protein stability index [2]	protein stability index [3]	protein stability index [4]
ENILMCVDDAYVRRMAAEATEWQK [SRPK2]	3.52 ± 0.26	3.55 ± 0.17		
TGFRTISSLEEIVEKQGDTIEYLK [TMEM192]	3.98 ± 0.41	4 ± 0.2		
PSMNPDGYEVAAAQGPNKPGYLVG [CPN1]	4.33 ± 0.19	4.25 ± 0.24		
SVPLSLCVSSHLALPAQHHWESW [CLPTM1]			2.22 ± 0.1	2.33 ± 0.25
PRTRGSWSQPQPLKAPCLNGDTT [RASAL3]			3.62 ± 0.36	3.5 ± 0.36
TSTGSAASSGSNSSASSEQGLLGR [SPRY1]	5.07 ± 0.28	5.17 ± 0.099		
MDPGWGQRDVGWAALLILFAASLL [C2CD2L]	2.34 ± 0.24	2.26 ± 0.31		
QSLPKASPVTTSPTAATTQNPVLS [LCOR]	4.92 ± 0.19	4.85 ± 0.21		
TGCVLGSSGKVLPKWGWEQLEVTC [POMT2]	2.07 ± 0.36	2.25 ± 0.27		
LLDGLARRVGILGEELADVGGVLR [SCARA5]	2.64 ± 0.2	2.72 ± 0.4		
DSETLDLEEAEGAVGYQPEYSKFC [NFE2L1]	5.13 ± 0.34	5.01 ± 0.5		
MAYDQFLAICRPLTYSTRMSQTVQ [OR3A1]	2.25 ± 0.33	2.21 ± 0.29		
VPVLKPMDLMVEVSPRRIFANGHT [PPP2R2C]	2.59 ± 0.48	2.75 ± 0.14		
AGNDDSFGSLPSPKELSSFSFSMK [DLC1]	3.75 ± 0.2	3.87 ± 0.21		
RRLPLAFRDATSAPLRKLSVDLIK [DYRK1B]	2.46 ± 0.39	2.45 ± 0.26		
PGSTRPHRSACSSAAVRGHPRALP [HAGHL]	3.19 ± 0.23	3.15 ± 0.24		
PGITRVYSIGRSVEGRHLYVLEFS [CPN1]	3.12 ± 0.91	2.81 ± 0.63		
APGEEEEEEEEATNTHPPASLPSQ [CHGA]	5.57 ± 0.34	5.71 ± 0.19		
EMLGRKCLTLATAVVQLYLALPPG [WAS]	3.02 ± 0.3	3.3 ± 0.55		
KGEFKDEEETVTTKHIHITQATET [CLINT1]	5.42 ± 0.059	5.4 ± 0.097		
YADFGPLNLAMVYRYCCKLNKKLK [CDC14A]	2.9 ± 0.58	2.56 ± 0.43		
CPHTPEFSVTGGTEEKSSLLMSCL [RPAIN]	3.38 ± 0.22	3.49 ± 0.074		

Sequence	protein stability index [1]	protein stability index [2]	protein stability index [3]	protein stability index [4]
TSGVVFTGLMVSLLCLLHFSIVSV [RTN2]	3 ± 0.53	3.07 ± 0.24		
RYLEAEFKKGNRYIRCQKEVGKSF [SMG5]	2.57 ± 0.71	2.29 ± 0.21		
YPCVLATEGFTSGRHYWEVEVGDK [TRIM39]	2.59 ± 0.62	3.27 ± 0.68		
KYRSYEEFKADAQLLLHNTVIFYG [ZMYND11]	2 ± 0.46	2.07 ± 0.33		
FWNSPSSPSSSAASSSSPSSSSAV [RHOBTB2]	4.41 ± 0.14	4.4 ± 0.089		
GRLLFAGYNDYTINVWDVLKGSRV [GNB5]	2.48 ± 0.58	2.18 ± 0.17		
GEGKLSKRLKHKDDSVMKATQQAR [C22orf31]	4.64 ± 0.21	4.81 ± 0.22		
LGVGLLTFASLETVGIYFGLVYRI [TMEM40]	3.17 ± 0.25	3.29 ± 0.22		
ETVVNRIAAGEVIQRPANAIKEMI [MLH1]	3.17 ± 0.17	3.36 ± 0.19		
VNMVDVAKALNRPPTYPTKYFGCE [EIF5]	2.56 ± 0.19	2.45 ± 0.18		
ARIRSHSWLESCIVGWRCRVGQWV [GMPPB]	2.27 ± 0.3	2.262 ± 0.009		
TFFLRTDAETPPRFTRTPVDQTGV [PTPRD]	3.42 ± 0.16	3.28 ± 0.45		
DALDKIRYESLTDPSKLDSGKELK [HSP90AB1]	5.06 ± 0.1	5 ± 0.16		
NILLKNLVTIARKASLWQFLSSEK [TRIM43]	2.17 ± 0.42	2.13 ± 0.18		
KEISRKRRSIRYGREVELKPYIAA [PTPRD]	3.27 ± 0.17	3.65 ± 0.44		
AVATIVKPLSAIPQPTITKQEVI [HNF4A]			2.43 ± 0.28	2.37 ± 0.19
CEALEDSDGRQDSPAGELPKTVQQ [MATN2]	5.55 ± 0.33	5.56 ± 0.17		
ITKAFHVRKANRIKECLSKGTFSD [RHOBTB1]	2.7 ± 0.25	2.81 ± 0.51		
TARRSKRERREEDRAPAEQVPRSP [PWWP2B]	5.38 ± 0.26	5.16 ± 0.45		
SRSAAQDLDRMGVMTLPSDLRKHR [PPFIA4]	4.54 ± 0.48	5.22 ± 0.1		
VWERPARSALWCLGLNAAFWFFAL [RETREG3]	2.62 ± 0.77	2.61 ± 0.2		
